{"source": "the nanobody polyreactivity screen of Harvey et al. (2022)"}
{"assay": "yeast display, Sf9 membrane polyspecificity reagent, FACS + sequencing; frameworks hold sequencing errors", "summary_of_the_method": "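Genes from sorted yeast were amplified by colony PCR, read by MiSeq 2 × 250 sequencing and filtered on CDR length. These cells carried a synthetic nanobody library in Saccharomyces cerevisiae BJ5465 and were sorted by FACS into low and high (top ~1%) gates on anti-HA and streptavidin fluorescence. Polyreactivity is labelled according to the gate of origin.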"}
{"sequence": "QVQLVESGGGLVQAGGSLRLSCAASGLTFLYYAMGWYRQAPGKERELVAAISSRGGSTYYADSVKGRFKISRDNAKNTVYLQMNSLKPEDTAVYYCNAVRGDEYWGQGTQVTVSS", "polyreactivity (PSR sort gate)": "high polyreactivity"}
{"sequence": "QVQLVESGGGLVQAGGSLRLSCAASGLTFNKNAMGWYRQAPGKEREFVAAISRRGGSTRYADSVKGRFTISRDNAKNTVYLQMHSLKPEDTAVYYCAKTAVDYYYSYDYWGQGTQVTVSS", "polyreactivity (PSR sort gate)": "high polyreactivity"}
{"sequence": "QVQLVESGGGLVQAGGSLRLSCAASGLTFNSYDMGWYRQAPGKERELVAAISSGGVLPNYADSVKGRFTISRDNAKNTVYLQMNSLKPEDTAVYYCAAGYEYDVSDFDYWGQGTQVTVSS", "polyreactivity (PSR sort gate)": "low polyreactivity"}
{"sequence": "QVQLVESGGGLVQAGGSLRLSCAASGLTFNVNPIVWYRQAPGKEREMVARITTSGGSTSYADSVKGRFTISRDNAKNTVYLQMNSLKPEDSAVYYCAADRARYYSEYDYWGQGTQVTVSS", "polyreactivity (PSR sort gate)": "low polyreactivity"}
{"sequence": "QVQLVESGGGLVQAGGSLRLSCAASGLTFNWYAMGWYRQAPGKERELVAAINRRGVITYYADSVKGRFTISRDNAKNTVYLQMNSLKPEDTAVYYCNAAYGYVSRVYYLIEHDYWGQGTHVTVSS", "polyreactivity (PSR sort gate)": "high polyreactivity"}
{"sequence": "QVQLVESGGGLVQAGGSLRLSCAASGLTFNYYDMGWYRQAPGKERELVAAISRSGTNTSYADSVKGRFTISRDNAKNTVYLQMNSLKPEDTAVYYCNAAGVYLAAGPYTANFNYNYWGQGTQVTVSS", "polyreactivity (PSR sort gate)": "low polyreactivity"}
{"sequence": "QVQLVESGGGLVQAGGSLRLSCAASGLTFPFYTMGRYRRAPGKERELVAAISRRGGSTYYADSVKGRFTISRDNAKNTVYLQMNSLKPEDTAVYYCAADKYSWYDYWGQGTQVTVSS", "polyreactivity (PSR sort gate)": "low polyreactivity"}
{"sequence": "QVQLVESGGGLVQAGGSLRLSCAASGLTFPFYTMGWYRQAPGKERELVAAISRRGGSTYYADSVKGRFTISRDNAKNTDYLQMNSMKPVDTAVYYCAADKYSWYDYWGQGTEVTVSS", "polyreactivity (PSR sort gate)": "low polyreactivity"}
{"sequence": "QVQLVESGGGLVQAGGSLRLSCAASGLTFPHYAMGWYRQAPGKEREFVAVISWSGGSTSYADSVKGRFTISRDNAKNTVYLQMNSLKPEDTAVYYCAAVYRTREWSYYYWGQGTQVTVSS", "polyreactivity (PSR sort gate)": "high polyreactivity"}
{"sequence": "QVQLVESGGGLVQAGGSLRLSCAASGLTFPQYVMGWYRQAPGKERELVASISRSGGNTYYADSVKGRFTISRDNAKNTVYLQMNSLKPEDTAVYYCAAEYIFHYYDIFDYWGQGTQVTVSS", "polyreactivity (PSR sort gate)": "high polyreactivity"}
{"sequence": "QVQLVESGGGLVQAGGSLRLSCAASGLTFPSNAMGWYRQAPGKERELVAAISKRGGRKYYADSVKGRFTISRDNAKNTVYLQMNSLKPEDTAVYYCATPYAYPGTVQYARYNYWGQGTQVTVSS", "polyreactivity (PSR sort gate)": "high polyreactivity"}
{"sequence": "QVQLVESGGGLVQAGGSLRLSCAASGLTFPSNAMGWYRQAPGKERELVAAISKRGGRTYYADSVKGRFTISRDNAKNTVYLQINSLKPEDTAVYYCAAVPWYVSHDFDYWGQGTQVTVSS", "polyreactivity (PSR sort gate)": "high polyreactivity"}
{"sequence": "QVQLVESGGGLVQAGGSLRLSCAASGLTFPYNAMGWYRQAPGKERELVAAISNGGGTYYADSVKGRFTISRDNAKNPVYLQMNSLKPEDTAVYYCAVDEYSRDYWRYYYWGQGTQVTVSS", "polyreactivity (PSR sort gate)": "low polyreactivity"}
{"sequence": "QVQLVESGGGLVQAGGSLRLSCAASGLTFPYYAMGWYRQAPGKERELVASISWSGASTYYADSVKGRSTISRDYAKNTVYLQMNSLKPEDTAVYYCNAGFYGSYDYWGQGTQVTVSS", "polyreactivity (PSR sort gate)": "high polyreactivity"}
{"sequence": "QVQLVESGGGLVQAGGSLRLSCAASGLTFQRYAMGWYRQAHGKERELVAAISYRGSRTYYADSVKGRFTISRDNAKNTVYLQMNSMKPEDSAVYYCNKVRTGYGVTYLVGYWGQGTHVTVSS", "polyreactivity (PSR sort gate)": "high polyreactivity"}
{"sequence": "QVQLVESGGGLVQAGGSLRLSCAASGLTFQSYAMGRYRQAPVKERELVATISNGSSTYYADSVKGRFTFSRDNAKNTVYLQMNSLKPEDTAVYFCAKDYYYSRNPLYGHDYWGHGTQVTVSS", "polyreactivity (PSR sort gate)": "low polyreactivity"}
{"sequence": "QVQLVESGGGLVQAGGSLRLSCAASGLTFQSYAMGWYRQAPGKEMELVATIYNGSSTYYAVSVKGRFTISRDNAKNTDYLQMNSLKPEDTAVYYCAKDYYYSRNALYGHDYWGQVTQVTVSS", "polyreactivity (PSR sort gate)": "low polyreactivity"}
{"sequence": "QVQLVESGGGLVQAGGSLRLSCAASGLTFQTNAMGWYRQAPGKERELVAAISRRGSSTYYADSVKGRFTISRDNAKNTVYLQMNSLKPEDTAVYYCNAVRYLFIYPRYDYWGQGTQVTVAS", "polyreactivity (PSR sort gate)": "high polyreactivity"}
{"sequence": "QVQLVESGGGLVQAGGSLRLSCAASGLTFRAYAMGWYRQAPGKERELVAAITWSGGSTYYADSVKGRFTISRDNAKNTVYLQMNSLKPEDTAVYYCTAVLRAGYWYYSHGYDYWGQGTQVTVSS", "polyreactivity (PSR sort gate)": "low polyreactivity"}
{"sequence": "QVQLVESGGGLVQAGGSLRLSCAASGLTFRKYAMGWYRQAPGKERELVAAITRGGSTNYADSVKGRFTISRDNAKNTVYLQMNSLKPEDTAVYYCNTRPYRPFDYWGQGTQVTVSS", "polyreactivity (PSR sort gate)": "high polyreactivity"}
{"sequence": "QVQLVESGGGLVQAGGSLRLSCAASGLTFRLNAMGWYRQAPGKERELVAAITRGGRTNYADSVKGRFTISRDNAKNTVYLQMNSLKPEDTAVYYCAARYVERHTDYYYWGQGTQVTVSS", "polyreactivity (PSR sort gate)": "low polyreactivity"}
{"sequence": "QVQLVESGGGLVQAGGSLRLSCAASGLTFRRNAMGWYRQAPGKERELVAAISSGGVRTYYADSVKGRFTISRDNAKNTVYLQMNSLKPEDTAVYYCAAEDYAQRYTHYESWGQGTQVTVSS", "polyreactivity (PSR sort gate)": "low polyreactivity"}
{"sequence": "QVQLVESGGGLVQAGGSLRLSCAASGLTFRYYAMGWYRQAPGKERELVAAISSRGASTYYADSVKGRFTISRDNAKNTVYLQMNSLKPEDTAVYYCAVRTYVYHWSFSSLPYDYWGQGTQVTVSS", "polyreactivity (PSR sort gate)": "high polyreactivity"}
{"sequence": "QVQLVESGGGLVQAGGSLRLSCAASGLTFRYYAMGWYRQAPGKERELVAAISWSGGSTYYADSVKGRFTISRDNAKNTVYLQMNSLKPEDTAVYFCNAELYPQWYDSGQTMEYWGQGTQVTVSS", "polyreactivity (PSR sort gate)": "high polyreactivity"}
{"sequence": "QVQLVESGGGLVQAGGSLRLSCAASGLTFSDNAMGWYRQAPGKEREFVAAITRNGGSTRYADSVKGRFTISRDNAKNTVYLQMNSLKPEDTAVYYCAAVPVGYDSDWGYYYWGQGTQVTVSS", "polyreactivity (PSR sort gate)": "low polyreactivity"}
{"sequence": "QVQLVESGGGLVQAGGSLRLSCAASGLTFSDYAMGWYRQAPGKEREFVAALTRNGGSTRYADSVKGRFTISRDNAKNTVYLQMNSLKPEDTAVYYCNADGWGDRFWSNFRFDYWGQGTQVTVSS", "polyreactivity (PSR sort gate)": "low polyreactivity"}
{"sequence": "QVQLVESGGGLVQAGGSLRLSCAASGLTFSLYAMGWYRQAPGKERELVAAISSSGSTYYADSVKGRFTISRDNAKNTVYLQMNSLKPEDTAVYYCAADAPWWIDPIAGNYWGQGTQVTVSS", "polyreactivity (PSR sort gate)": "high polyreactivity"}
{"sequence": "QVQLVESGGGLVQAGGSLRLSCAASGLTFSRYAKGRYRQAPGKERELVAAISSSGTRTYYADSVKGRFTISRDNAKITVYLQMNSLKPEDTAVYYCAARSGGSGGTYGYWGHGTQVTVSS", "polyreactivity (PSR sort gate)": "high polyreactivity"}
{"sequence": "QVQLVESGGGLVQAGGSLRLSCAASGLTFSRYAMGWYRQAPGTERELVAVISRSGGSTYYADSVKGRFTISRDNAKNTVYLQMNSLIPEDTAVYYCAVRAYIKMDYWGQGTQVTVSS", "polyreactivity (PSR sort gate)": "high polyreactivity"}
{"sequence": "QVQLVESGGGLVQAGGSLRLSCAASGLTFSTYAMGWYRQAPGKERELVATITYSGSSTYADSVKGRFTIARDNAKNTVYLQMNSLKPEDTAVYFCAAVTYHGNPSEYFPDTVGFYYWGQGTQVTVSS", "polyreactivity (PSR sort gate)": "low polyreactivity"}
{"sequence": "QVQLVESGGGLVQAGGSLRLSCAASGLTFSVYAMGWYRPAPGKERELVAAISGSGGSTYYADSVKGRFTISRDNAKNTVYLQMNSLKPEDTAVYYCAARYDVHYDGMDYWGQGTQVTLSS", "polyreactivity (PSR sort gate)": "low polyreactivity"}
{"sequence": "QVQLVESGGGLVQAGGSLRLSCAASGLTFSYYAMGWYRPAPGKERELVAAITSSGGNTYYADSVKGRFTISRDNEKNTVYLQMNSLKPEETAVYYCNARRYLRGYGYGYWGQGTQVTVSS", "polyreactivity (PSR sort gate)": "high polyreactivity"}
{"sequence": "QVQLVESGGGLVQAGGSLRLSCAASGLTFSYYAMGWYRQAPGKERELVAVISYSGSSTYYADSVKGRFTISRDNAKNTVYLQMNSLKPEDTAVYYCAAYLYPRGKGAYDFYYWGQGTQVTVSA", "polyreactivity (PSR sort gate)": "high polyreactivity"}
{"sequence": "QVQLVESGGGLVQAGGSLRLSCAASGLTFTDYAMGWNRQAPGKERELVAGIWDGGSTYYADSVNGRFTISRDNPKNTVYLLMNSLKPEDTAVYYCAARYAGGFYYWGQGTQVTVSS", "polyreactivity (PSR sort gate)": "high polyreactivity"}
{"sequence": "QVQLVESGGGLVQAGGSLRLSCAASGLTFTGYAMGWYRQAPGKERELVASISSRGGSTYYADSVKGRFTISRDNAKITVYLQMNSLKPEDTAVYYCNAVYRGYYSGELDYWGQGTQVTVSS", "polyreactivity (PSR sort gate)": "high polyreactivity"}
{"sequence": "QVQLVESGGGLVQAGGSLRLSCAASGLTFTHYAMGWYRQAPGKEMELVAAISSGGRTYYADSVKGRFTISRDNAKNTVYLQMNSLKPEDTGVYYCAAVTTVYTKYGYWGQGTQVTVSS", "polyreactivity (PSR sort gate)": "high polyreactivity"}
{"sequence": "QVQLVESGGGLVQAGGSLRLSCAASGLTFTSYPMVWYRQAPGKERELVAAIDWSGGRTYYADSVKGRFTISRDNAKNTVYLQMNSLKPEDTAVYYCAAYSRNRALRFNYWGQGTQVTVSS", "polyreactivity (PSR sort gate)": "high polyreactivity"}
{"sequence": "QVQLVESGGGLVQAGGSLRLSCAASGLTFTTYAMGWYRQAPWKERELVAAISRSGGRTYYADSVKGRFTISRDNAKNTVYLHMNSLKPEDTAVYYCNVKGHVLEYYWGQGTQVTVSS", "polyreactivity (PSR sort gate)": "high polyreactivity"}
{"sequence": "QVQLVESGGGLVQAGGSLRLSCAASGLTFTYYAMGWYRQSPGKASEFVAAISSSGSDTYYADSVKGRFTISRDNAKNTVYLQMTSQKPEDTAVYYCAAVLTGLSPDFEYEYWGQGTQVTVSS", "polyreactivity (PSR sort gate)": "low polyreactivity"}
{"sequence": "QVQLVESGGGLVQAGGSLRLSCAASGLTFVAYAMGWYRQAPGKERELVAAITRRGGSTYYADSVTGRFTISRDNAKNTVYLQMNSLKPEDTAVYYCAAEGSYSRNPGFDYWGQGTQVTVSS", "polyreactivity (PSR sort gate)": "high polyreactivity"}
{"sequence": "QVQLVESGGGLVQAGGSLRLSCAASGLTFVDNALGWYRQAPGKDRELVAAISYNGGTTYYADSVKGRFTISRDNAKNTVYLQIISLKPEDTAVFYCAADISVGRYGDMDYWGQGTQVTVSS", "polyreactivity (PSR sort gate)": "low polyreactivity"}
{"sequence": "QVQLVESGGGLVQAGGSLRLSCAASGLTFVKNVMGWYRQAPGKERELVAAISRRGGSTYYADSVKGRFTISRDNAKNTVYLQMNSLKPEDTAVYSCNAVLNHLSYIYPAVGYWGQGTQVTVSS", "polyreactivity (PSR sort gate)": "high polyreactivity"}
{"sequence": "QVQLVESGGGLVQAGGSLRLSCAASGLTFVQYAMGWYRQAPGKERELVATISKSGGFTYYADSVKGRFTISRDNATNTVYLQMNSLKPEDTAVYYCAAAWYYSSRGFHASWGHDYWGQGTQVTVSS", "polyreactivity (PSR sort gate)": "low polyreactivity"}
